The target in this test is T1, human CASK PDZ domain (residues 487-572) (human, UniProt O14936 487-572).
T1 sequence (looked up): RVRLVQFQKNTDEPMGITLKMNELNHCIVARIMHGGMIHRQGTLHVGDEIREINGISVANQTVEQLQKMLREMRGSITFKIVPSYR
The test can be described thus: differential scanning fluorimetry. On the technique in general: DSF heats the sample and reads unfolding from a dye or from intrinsic fluorescence.

* marks the point of attachment. Dansyl = CN(C)c1cccc2c(S(=O)(=O)*)cccc12

B1: Syndecan1 peptide (residues 303-310) (peptide)
peptide: Dansyl-TKQEEFYA-OH
SMILES: C[C@H](NC(=O)[C@H](Cc1ccc(O)cc1)NC(=O)[C@H](Cc1ccccc1)NC(=O)[C@H](CCC(=O)O)NC(=O)[C@H](CCC(=O)O)NC(=O)[C@H](CCC(N)=O)NC(=O)[C@H](CCCCN)NC(=O)[C@@H](NS(=O)(=O)c1cccc2c(N(C)C)cccc12)[C@@H](C)O)C(=O)O
Regarding B1, the binding result is on record as “binds”.

B2: Neurexin peptide (residues 1,470-1,477) (peptide)
peptide: Dansyl-NKDKEYYV-OH
SMILES: CC(C)[C@H](NC(=O)[C@H](Cc1ccc(O)cc1)NC(=O)[C@H](Cc1ccc(O)cc1)NC(=O)[C@H](CCC(=O)O)NC(=O)[C@H](CCCCN)NC(=O)[C@H](CC(=O)O)NC(=O)[C@H](CCCCN)NC(=O)[C@H](CC(N)=O)NS(=O)(=O)c1cccc2c(N(C)C)cccc12)C(=O)O
With B2, the binding result was “binds”.

B3: Caspr4 peptide (residues 1,301-1,308) (peptide)
peptide: Dansyl-ENQKEYFF-OH
SMILES: CN(C)c1cccc2c(S(=O)(=O)N[C@@H](CCC(=O)O)C(=O)N[C@@H](CC(N)=O)C(=O)N[C@@H](CCC(N)=O)C(=O)N[C@@H](CCCCN)C(=O)N[C@@H](CCC(=O)O)C(=O)N[C@@H](Cc3ccc(O)cc3)C(=O)N[C@@H](Cc3ccccc3)C(=O)N[C@@H](Cc3ccccc3)C(=O)O)cccc12
For the molecule B3, the binding result was “binds”.

For the origin of these results see publication doi:10.1101/790667 (bioRxiv, 2019).
